Among the data in PMC7671685 are stoichiometry N values, retold here.

Where “and” joins values, the source holds several entries; their conditions need not be identical. Equal values may be shown once.

For this assay, the target named is proinsulin 2 (mouse (endogenous in MIN6)). The assay can be described thus: non-reducing SDS-PAGE of immunoprecipitates (disulfide-linked forms) + mass spectrometry of the excised band; MIN6 cells treated with 50 µM olanzapine; pulse-chase, immunoprecipitation with anti-insulin #8138, non-reducing SDS-PAGE and autoradiography; for mass spectrometry cells were lysed in 1% NP40 with 10 mM NEM and the HMP-1 band was excised.

For orientation: stoichiometry N means the number of molecules, sites or subunits per partner or assembly. Regarding proinsulin 2 (natural protein), the stoichiometry N was 2 and 3.
